Results reported in IntAct's records for PubMed 25619834.

B1: Influenza virus NS1A-binding protein (Homo sapiens), Q9Y6Y0 (parent)
chain: MIPNGYLMFEDENFIESSVAKLNALRKSGQFCDVRLQVCGHEMLAHRAVLACCSPYLFEIFNSDSDPHGISHVKFDDLNPEAVEVLLNYAYTAQLKADKELVKDVYSAAKKLKMDRVKQVCGDYLLSRMDVTSCISYRNFASCMGDSRLLNKVDAYIQEHLLQISEEEEFLKLPRLKLEVMLEDNVCLPSNGKLYTKVINWVQRSIWENGDSLEELMEEVQTLYYSADHKLLDGNLLDGQAEVFGSDDDHIQFVQKKPPRENGHKQISSSSTGCLSSPNATVQSPKHEWKIVASEKTSNNTYLCLAVLDGIFCVIFLHGRNSPQSSPTSTPKLSKSLSFEMQQDELIEKPMSPMQYARSGLGTAEMNGKLIAAGGYNREECLRTVECYNPHTDHWSFLAPMRTPRARFQMAVLMGQLYVVGGSNGHSDDLSCGEMYDSNIDDWIPVPELRTNRCNAGVCALNGKLYIVGGSDPYGQKGLKNCDVFDPVTKLWTSCAPLNIRRHQSAVCELGGYLYIIGGAESWNCLNTVERYNPENNTWTLIAPMNVARRGAGVAVLNGKLFVCGGFDGSHAISCVEMYDPTRNEWKMMGNMTSPRSNAGIATVGNTIYAVGGFDGNEFLNTVEVYNLESNEWSPYTKIFQF

Variants of: B1
Conditions: with cul3_human CUL3, Q13618

Row | Variant | effect of a mutation on the interaction
1 | F75L | causing an interaction
2 | M114L | causing an interaction
